This is an account of results in publication PMC2728434 (The EMBO Journal, 2009).

For assay [1], the target named is T1, Importin β (Kap95p), scImpβ-His6 (yeast, UniProt Q06142 1-861).
T1 sequence (looked up): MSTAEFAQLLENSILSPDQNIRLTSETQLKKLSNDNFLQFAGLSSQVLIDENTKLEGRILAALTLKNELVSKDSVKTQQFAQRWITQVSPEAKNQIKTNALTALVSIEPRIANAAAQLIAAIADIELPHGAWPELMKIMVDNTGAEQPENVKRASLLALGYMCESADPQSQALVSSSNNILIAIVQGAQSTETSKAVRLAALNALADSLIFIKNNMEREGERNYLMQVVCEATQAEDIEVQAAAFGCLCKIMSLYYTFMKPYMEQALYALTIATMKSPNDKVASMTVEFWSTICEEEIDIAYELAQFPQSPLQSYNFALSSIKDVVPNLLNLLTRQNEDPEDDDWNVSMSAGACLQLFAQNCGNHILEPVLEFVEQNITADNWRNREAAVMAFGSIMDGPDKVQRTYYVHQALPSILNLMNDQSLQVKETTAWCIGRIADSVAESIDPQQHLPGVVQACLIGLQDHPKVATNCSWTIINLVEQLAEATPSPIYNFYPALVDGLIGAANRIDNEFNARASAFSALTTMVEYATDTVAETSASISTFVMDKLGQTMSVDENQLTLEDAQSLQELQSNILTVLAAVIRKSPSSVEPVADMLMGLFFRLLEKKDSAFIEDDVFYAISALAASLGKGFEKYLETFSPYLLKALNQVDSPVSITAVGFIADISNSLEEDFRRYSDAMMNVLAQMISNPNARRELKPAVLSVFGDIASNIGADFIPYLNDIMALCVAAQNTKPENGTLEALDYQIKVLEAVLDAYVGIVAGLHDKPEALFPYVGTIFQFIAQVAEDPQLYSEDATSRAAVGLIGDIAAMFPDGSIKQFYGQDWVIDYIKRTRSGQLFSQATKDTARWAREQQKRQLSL
The experiment in a line: SEC. Background: SEC sorts molecules by how far they enter the pores of the column.

The target of assay [2] is T1, Importin β (Kap95p), scImpβ-His6. The experiment in a line: SEC. This is another data set of the same source.

Like-named read-outs stand apart in the source and are kept apart here.

B1: IBB-MBP-mEGFP (domain or fragment, Saccharomyces cerevisiae, UniProt Q02821 2-63, looked up)
chain: DNGTDSSTSKFVPEYRRTNFKNKGRFSADELRRRRDTQQVELRKAKRDEALAKRRNFIPPTD
Turning to B1, the binding result in assay [1] is reported as “binds”.

B2: IBB-ZsGreen (domain or fragment, Saccharomyces cerevisiae, UniProt Q02821 2-63, looked up)
chain: DNGTDSSTSKFVPEYRRTNFKNKGRFSADELRRRRDTQQVELRKAKRDEALAKRRNFIPPTD
On to B2, for which the binding result in assay [2] is “binds”.
